# According to patent US20100015600A1:
# Target: CD66c receptor (human (patients' ileal enterocytes)) (UniProt P40199)
# Test: cell-based or functional assay
# Sequence of UniProt P40199 (P40199 35-320): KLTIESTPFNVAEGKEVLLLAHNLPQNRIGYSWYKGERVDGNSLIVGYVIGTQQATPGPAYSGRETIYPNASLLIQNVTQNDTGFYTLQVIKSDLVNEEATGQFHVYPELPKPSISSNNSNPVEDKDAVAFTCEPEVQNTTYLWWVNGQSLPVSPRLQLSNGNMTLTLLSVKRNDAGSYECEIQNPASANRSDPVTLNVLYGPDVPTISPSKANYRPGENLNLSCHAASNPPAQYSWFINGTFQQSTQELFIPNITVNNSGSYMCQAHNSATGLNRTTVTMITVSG
substance,measurement,value
type 1 pili (adhesin FimH) of the E. coli AIEC strain LF82,"Adhesion to the enterocytes, no antibody (adhesion index), patient F (bacteria adhering per enterocyte)",1.45
same,"Adhesion to the enterocytes, no antibody (adhesion index), patient G (bacteria adhering per enterocyte)",1.15
same,"Adhesion to the enterocytes, no antibody (adhesion index), patient H (bacteria adhering per enterocyte)",1.02
same,"Adhesion to the enterocytes, no antibody (adhesion index), patient I (bacteria adhering per enterocyte)",1.28
